From patent US20130184211A1 (NEW YORK UNIVERSITY, published 2013) come the findings set out here.

In assay [1] the target is T1, complex of V5-tagged FGFR1c and FLAG-tagged membrane-spanning murine Klotho isolated from transfected … (murine, UniProt O35082 35-1014).
T1 construct: Isolated from cell lysate on anti-V5 agarose beads; also called FGFR1c-Klotho complex (co-immunoprecipitated); binary FGFR-Klotho complex; not shown: FGFR1c, V5-tagged, expressed from a vector in HEK293-Klotho cells
Put plainly: co-immunoprecipitation competition; competitor FGF23^28-251. The text has this:
(§1) Co-immunoprecipitation may also be used to determine that an agent specifically binds the binary FGFR-Klotho complex. One aspect of the present invention utilizes co-immunoprecipitation studies. Subconfluent cultures of a HEK293 cell line ectopically expressing the FLAG-tagged membrane-spanning form of murine Klotho were transfected with expression vectors for V5-tagged FGFR1c, FGFR3c, or FGFR4. Two days later, the cells were lysed, and FGFR-Klotho complexes were isolated from cell lysate using anti-V5 agarose beads. The beads were then incubated with either FGF23¹⁸⁰⁻²⁵¹ or FGF23²⁸⁻²⁵¹ alone, or with mixtures of FGF23²⁸⁻²⁵¹ with either increasing FGF23¹⁸⁰⁻²⁵¹ or increasing FGF23¹⁸⁰⁻²⁰⁵. Bead-bound proteins were resolved on SDS-polyacrylamide gels, transferred to nitrocellulose membranes, and labeled using antibodies to Klotho, FGF23, and V5 epitope tag.

Assay [2] concerns the target T2, complex of V5-tagged FGFR4 and FLAG-tagged membrane-spanning murine Klotho isolated from transfected … (murine, UniProt O35082 35-1014).
T2 construct: Isolated from cell lysate on anti-V5 agarose beads; also called FGFR4-Klotho complex; binary FGFR-Klotho complex; not shown: FGFR4, V5-tagged, expressed from a vector in HEK293-Klotho cells
Described as above.
Excerpt: as §1

Assay [3] deals with T3, complex of V5-tagged FGFR3c and FLAG-tagged membrane-spanning murine Klotho isolated from transfected … (murine, UniProt O35082 35-1014).
T3 construct: Isolated from cell lysate on anti-V5 agarose beads; also called FGFR3c-Klotho complex; binary FGFR-Klotho complex; not shown: FGFR3c, V5-tagged, expressed from a vector in HEK293-Klotho cells
T3 sequence (O35082 35-1014, one chain of several): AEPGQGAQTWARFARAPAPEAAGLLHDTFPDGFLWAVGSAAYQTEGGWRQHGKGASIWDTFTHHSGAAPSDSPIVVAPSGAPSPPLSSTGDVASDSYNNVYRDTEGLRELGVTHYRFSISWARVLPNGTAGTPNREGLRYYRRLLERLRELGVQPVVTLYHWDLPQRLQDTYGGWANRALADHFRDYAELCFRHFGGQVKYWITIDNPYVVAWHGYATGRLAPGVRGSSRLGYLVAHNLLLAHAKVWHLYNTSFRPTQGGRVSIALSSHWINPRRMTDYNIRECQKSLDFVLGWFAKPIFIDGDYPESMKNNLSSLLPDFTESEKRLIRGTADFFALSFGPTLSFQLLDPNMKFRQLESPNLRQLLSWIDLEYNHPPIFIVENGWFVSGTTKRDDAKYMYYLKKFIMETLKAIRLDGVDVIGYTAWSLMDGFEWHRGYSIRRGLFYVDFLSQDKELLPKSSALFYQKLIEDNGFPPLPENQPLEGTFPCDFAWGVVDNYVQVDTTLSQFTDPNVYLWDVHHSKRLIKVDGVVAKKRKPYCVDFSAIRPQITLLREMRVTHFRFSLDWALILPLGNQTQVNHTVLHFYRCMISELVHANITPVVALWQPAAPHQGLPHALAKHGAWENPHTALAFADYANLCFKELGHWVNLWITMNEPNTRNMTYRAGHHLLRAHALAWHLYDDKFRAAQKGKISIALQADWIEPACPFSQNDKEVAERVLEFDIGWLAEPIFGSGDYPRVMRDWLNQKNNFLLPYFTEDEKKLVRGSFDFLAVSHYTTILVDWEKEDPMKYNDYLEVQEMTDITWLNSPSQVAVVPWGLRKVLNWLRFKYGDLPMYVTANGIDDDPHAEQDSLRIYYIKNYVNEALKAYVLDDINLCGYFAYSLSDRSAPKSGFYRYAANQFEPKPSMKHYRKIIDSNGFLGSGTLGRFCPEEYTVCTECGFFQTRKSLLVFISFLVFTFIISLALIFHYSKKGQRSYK
Described as above.
Excerpt: as §1

Assay [4] addresses T4, 1:1 binary complex of the ectodomains of FGFR1c and Klotho (human; murine, UniProt O35082 35-982).
T4 construct: range 35-982; also called FGFR1c-Klotho complex; binary FGFR1c-Klotho complex; not shown: C-terminal FLAG tag
T4 sequence 1: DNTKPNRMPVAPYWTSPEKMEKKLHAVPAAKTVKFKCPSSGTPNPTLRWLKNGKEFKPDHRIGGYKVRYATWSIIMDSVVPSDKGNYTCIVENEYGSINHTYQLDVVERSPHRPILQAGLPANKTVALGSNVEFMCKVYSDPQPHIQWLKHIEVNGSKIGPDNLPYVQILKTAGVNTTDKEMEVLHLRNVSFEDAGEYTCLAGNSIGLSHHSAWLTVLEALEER
T4 sequence 2: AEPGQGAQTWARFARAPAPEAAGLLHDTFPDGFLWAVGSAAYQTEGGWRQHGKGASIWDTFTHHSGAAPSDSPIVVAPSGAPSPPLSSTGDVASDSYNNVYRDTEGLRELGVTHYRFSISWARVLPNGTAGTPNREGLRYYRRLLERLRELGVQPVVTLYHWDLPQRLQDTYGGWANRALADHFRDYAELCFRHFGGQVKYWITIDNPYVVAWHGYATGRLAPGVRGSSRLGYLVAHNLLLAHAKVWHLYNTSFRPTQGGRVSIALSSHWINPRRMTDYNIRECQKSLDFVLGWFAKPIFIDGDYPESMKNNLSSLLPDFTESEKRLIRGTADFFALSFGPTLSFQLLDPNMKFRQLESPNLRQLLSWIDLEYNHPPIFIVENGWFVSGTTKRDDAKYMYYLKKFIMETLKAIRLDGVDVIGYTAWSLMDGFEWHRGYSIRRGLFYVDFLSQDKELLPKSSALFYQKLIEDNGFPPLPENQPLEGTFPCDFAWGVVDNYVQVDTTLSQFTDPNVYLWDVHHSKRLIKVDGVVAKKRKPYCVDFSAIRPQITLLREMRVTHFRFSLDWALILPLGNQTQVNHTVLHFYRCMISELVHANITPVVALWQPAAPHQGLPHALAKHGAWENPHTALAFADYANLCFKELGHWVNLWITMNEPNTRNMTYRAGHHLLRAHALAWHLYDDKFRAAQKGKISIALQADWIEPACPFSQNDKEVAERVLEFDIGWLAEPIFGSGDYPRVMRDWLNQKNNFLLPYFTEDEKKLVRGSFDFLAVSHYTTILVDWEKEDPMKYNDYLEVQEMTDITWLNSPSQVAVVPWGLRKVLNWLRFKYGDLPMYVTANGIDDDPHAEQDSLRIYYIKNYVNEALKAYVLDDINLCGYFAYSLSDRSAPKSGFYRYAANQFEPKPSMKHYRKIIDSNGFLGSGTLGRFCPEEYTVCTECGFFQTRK
Put plainly: SPR competition; competitor FGF23^28-251 immobilized, fixed FGFR1c-Klotho complex. The method, then: Increasing concentrations of FGF23²⁸⁻²⁵¹ (0-50 nM) were mixed with a fixed concentration of 1:1 complex of the ectodomains of FGFR1c and Klotho (15 nM and 20 nM, respectively) in HBS-EP buffer, and the mixtures were passed over the FGF23 chip. In the other—reverse—assay, FGF23¹⁸⁰⁻²⁵¹ was immobilized on a chip (˜48.4 fmole/mm² of flow channel). Increasing concentrations of FGF23²⁸⁻²⁵¹ (0-50 nM) were mixed with a fixed concentration of 1:1 complex of the ectodomains of FGFR1c and Klotho (20 nM) in HBS-EP buffer, and the mixtures were passed over the chip. As a control, competition of FGF23 C-terminal tail peptide in solution with immobilized FGF23 C-terminal tail peptide for binding to the binary FGFR1c-Klotho complex was studied. Increasing concentrations of FGF23¹⁸⁰⁻²⁵¹ (0-400 nM) were mixed with a fixed concentration of 1:1 complex of the ectodomains of FGFR1c and Klotho (20 nM) in HBS-EP buffer, and the mixtures were passed over the FGF23¹⁸⁰⁻²⁵¹ chip.
To fully nail down that the C-terminal tail of FGF23 mediates FGF23 binding to the binary FGFR1c-Klotho complex, a fixed concentration of FGFR1c-Klotho was mixed with increasing concentrations of FGF23¹⁸⁰⁻²⁵¹, and the mixtures were passed over the FGF23 chip. Mixtures of FGF23²⁸⁻²⁵¹ with FGFR1c-Klotho were used as a control. […] Similar results were obtained using the “reverse” SPR assay format, where FGF23¹⁸⁰⁻²⁵¹ was immobilized on a chip and mixtures of a fixed concentration of FGFR1c-Klotho complex with increasing concentrations of FGF23²⁸⁻²⁵¹ were passed over the chip (FIG. 3E). Mixtures of FGF23¹⁸⁰⁻²⁵¹ with FGFR1c-Klotho were used as a control (FIG. 3F). To verify the specificity of the interaction between the FGF23 C-terminal tail and the FGFR1c-Klotho complex, the C-terminal tail peptide of FGF21 and FGFR1c-Klotho were mixed at molar ratios of 6:1 and 10:1, and the mixtures were injected over a FGF23 chip.

Assay [5] has as its target FGFR-Klotho complex of opossum kidney OKP cells (opossum). Put plainly: cell-based or functional assay.

T1 sequence (O35082 35-1014, one chain of several): as the sequence (O35082 35-1014, one chain of several) above
T2 sequence (O35082 35-1014, one chain of several): as the sequence (O35082 35-1014, one chain of several) above

B1: FGF23 C-terminal region peptide (S180 to S205), FGF23^180-205 (peptide)
peptide: SAEDDSERDPLNVLKPRARMTPAPAS
notes: Made by solid phase synthesis (GenScript)
For B1, the “fold reduced potency compared to the FGF23^180-251 peptide” value in assay [1] is 100 fold; in assay [2] it was more than 100 fold; in assay [3] it was more than 100 fold. Besides, in assay [4], the “molar excess over FGFR1c-Klotho complex at half-maximum inhibition” value stood at 5.7 fold molar excess.

B2: N-terminally hexahistidine-tagged 72-amino acid C-terminal tail of human FGF23 (S180 to I251), FGF23^180-251 (peptide)
peptide: SAEDDSERDPLNVLKPRARMTPAPASCSQELPSAEDNSPMASDPLGVVRGGRVNTHAGGTGPEGCRPFAKFI
notes: Expressed in E. coli; also called FGF23 C-terminal tail peptide; C-terminal tail of FGF23; not shown: N-terminal hexahistidine tag (six His)
For B2, the “antagonism of the inhibition of sodium-coupled phosphate uptake by FGF23^28-251 in OKP cells, IC50” value in assay [5] is approximately 21 nM. Moreover, the “molar excess over FGFR1c-Klotho complex at half-maximum inhibition” value in assay [4] came to 3.3 fold molar excess.
